Results: patent publication EP2074145B1

Target: Amyloid Beta (antigen of the Amyloid Beta ELISA) (UniProt P05067)
Experiment: Amyloid Beta ELISA; purified antibodies from stable NS0 cell lines

Amyloid Beta (antigen of the Amyloid Beta ELISA), sequence (P05067 672-713 limits assumed): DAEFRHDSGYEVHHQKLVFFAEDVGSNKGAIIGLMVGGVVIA

B1: humanized antibody C2 HuVH2/HuVK3 (antibody, human IgG4 S228P, kappa, V domains shown)
VH: EVQLVESGGGLVQPGGSLRLSCAASGFTFSSYGMSWVRQAPGKGLEWVASINSNGGSTYYPDSVKGRFTISRDNAKNSLYLQMNSLRAEDTAVYYCASGDYWGQGTTVTVSS
VL: DIVMTQSPLSLPVTPGEPASISCRSSQSLVYSNGDTYLHWYLQKPGQSPKLLIYKVSNRFSGVPDRFSGSGSGTDFTLKISRVEAEDVGVYYCSQSTHVPWTFGQGTKVEIKR
Work on B1 yielded a fold reduction of binding activity compared to chimeric control antibody C2 ChVHAF/ChVK of 2 fold.
